T1: human propionyl-CoA carboxylase alpha (PCCA), wild-type isoform 1 (human, UniProt P05165 53-728)
T1 construct: Made inside transfected cells or mouse liver from mRNA encoding the full-length precursor; also called hPCCA; propionyl-CoA carboxylase alpha subunit
T1 sequence: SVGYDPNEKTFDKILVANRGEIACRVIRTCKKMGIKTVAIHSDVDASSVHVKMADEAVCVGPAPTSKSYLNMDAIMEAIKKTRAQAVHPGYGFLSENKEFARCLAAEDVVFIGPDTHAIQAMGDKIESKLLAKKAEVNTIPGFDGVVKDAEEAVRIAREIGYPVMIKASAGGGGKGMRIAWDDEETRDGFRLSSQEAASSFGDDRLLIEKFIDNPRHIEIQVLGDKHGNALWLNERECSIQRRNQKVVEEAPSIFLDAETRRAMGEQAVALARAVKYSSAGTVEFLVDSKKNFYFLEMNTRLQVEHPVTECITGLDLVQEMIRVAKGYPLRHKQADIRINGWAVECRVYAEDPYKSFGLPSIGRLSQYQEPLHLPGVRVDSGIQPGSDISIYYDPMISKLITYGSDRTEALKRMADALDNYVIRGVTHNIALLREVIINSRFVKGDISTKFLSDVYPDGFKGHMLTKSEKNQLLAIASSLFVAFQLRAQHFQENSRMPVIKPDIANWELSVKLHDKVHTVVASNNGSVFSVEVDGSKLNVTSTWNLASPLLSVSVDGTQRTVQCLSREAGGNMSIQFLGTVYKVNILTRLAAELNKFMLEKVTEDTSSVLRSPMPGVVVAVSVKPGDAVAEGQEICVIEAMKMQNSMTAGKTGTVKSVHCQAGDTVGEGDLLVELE

T2: human propionyl-CoA carboxylase beta (PCCB), wild-type isoform 1
T2 chain: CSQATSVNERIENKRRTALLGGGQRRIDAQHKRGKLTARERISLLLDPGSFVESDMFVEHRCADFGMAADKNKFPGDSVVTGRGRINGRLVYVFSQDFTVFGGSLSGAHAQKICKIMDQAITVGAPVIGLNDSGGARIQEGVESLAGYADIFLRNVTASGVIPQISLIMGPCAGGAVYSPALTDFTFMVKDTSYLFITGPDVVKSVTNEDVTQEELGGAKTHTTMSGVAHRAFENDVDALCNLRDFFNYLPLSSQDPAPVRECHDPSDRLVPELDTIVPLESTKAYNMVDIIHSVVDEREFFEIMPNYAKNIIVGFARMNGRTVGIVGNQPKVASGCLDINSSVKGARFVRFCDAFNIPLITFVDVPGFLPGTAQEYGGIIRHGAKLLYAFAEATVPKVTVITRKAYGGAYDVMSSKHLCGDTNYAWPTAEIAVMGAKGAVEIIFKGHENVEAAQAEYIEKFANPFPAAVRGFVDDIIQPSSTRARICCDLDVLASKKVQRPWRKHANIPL


Assays:
[1] = target: T1, human propionyl-CoA carboxylase alpha …; experiment: immunofluorescence co-localisation with mitochondria in GM371 PCCA-deficient patient fibroblasts, 24 h after co-transfection of PCCA_18 and PCCB_18 mRNAs
Procedure: The subcellular co-localization of PCCA and PCCB proteins was examined in GM371 PCCA-deficient patient fibroblasts (9,000 cells/well on a 96-well plate) 24 hours after transfection with a total of 25 ng of 1-methyl-pseudouridine modified mRNAs encoding human PCCA (PCCA_18; SEQ ID NO: 35) and PCCB (PCCB_18; SEQ ID NO: 46), or a luciferase control. Commercial anti-PCCA monoclonal antibody (Santa Cruz #sc-393527) and anti-PCCB polyclonal antibody (Novus #NBP1-85886) were used to detect mRNA-expressed PCCA and PCCB using immunofluorescence microscopy. Mitotracker Red was used to confirm the identity of mitochondria and DAPI was used to stain nuclei. Image analysis was performed on a Zeiss ELYRA imaging system. […] There was no PAAC or PCCB staining in negative control cells that were transfected with mRNA encoding luciferase.

[2] = target: T2, human propionyl-CoA carboxylase beta …

Row | binding result [1] | Binder | PCC activity in GM371 PCCA-deficient patient fibroblasts at different PCCA:PCCB mRNA molar ratios, 24 h and 40 h [2] | PCC activity in GM1298 PCCB-deficient patient fibroblasts at different PCCA:PCCB mRNA molar ratios, 24 h [2] | PCC enzyme activity (radiometric assay, MicroBeta readout/ug protein) in PCCA- and PCCB-deficient patient fibroblasts: co-transfection of PCCA and PCCB mRNAs at 1:1 against either mRNA alone [2]
1 | binds | human propionyl-CoA carboxylase beta (PCCB), wild-type isoform 1 (enzyme, Made inside transfected cells or mouse liver from mRNA encoding the full-length precursor; also called hPCCB; propionyl-CoA carboxylase beta subunit) CSQATSVNERIENKRRTALLGGGQRRIDAQHKRGKLTARERISLLLDPGSFVESDMFVEHRCADFGMAADKNKFPGDSVVTGRGRINGRLVYVFSQDFTVFGGSLSGAHAQKICKIMDQAITVGAPVIGLNDSGGARIQEGVESLAGYADIFLRNVTASGVIPQISLIMGPCAGGAVYSPALTDFTFMVKDTSYLFITGPDVVKSVTNEDVTQEELGGAKTHTTMSGVAHRAFENDVDALCNLRDFFNYLPLSSQDPAPVRECHDPSDRLVPELDTIVPLESTKAYNMVDIIHSVVDEREFFEIMPNYAKNIIVGFARMNGRTVGIVGNQPKVASGCLDINSSVKGARFVRFCDAFNIPLITFVDVPGFLPGTAQEYGGIIRHGAKLLYAFAEATVPKVTVITRKAYGGAYDVMSSKHLCGDTNYAWPTAEIAVMGAKGAVEIIFKGHENVEAAQAEYIEKFANPFPAAVRGFVDDIIQPSSTRARICCDLDVLASKKVQRPWRKHANIPL |  |  | 
2 |  | human propionyl-CoA carboxylase alpha (PCCA), wild-type isoform 1 (protein) SVGYDPNEKTFDKILVANRGEIACRVIRTCKKMGIKTVAIHSDVDASSVHVKMADEAVCVGPAPTSKSYLNMDAIMEAIKKTRAQAVHPGYGFLSENKEFARCLAAEDVVFIGPDTHAIQAMGDKIESKLLAKKAEVNTIPGFDGVVKDAEEAVRIAREIGYPVMIKASAGGGGKGMRIAWDDEETRDGFRLSSQEAASSFGDDRLLIEKFIDNPRHIEIQVLGDKHGNALWLNERECSIQRRNQKVVEEAPSIFLDAETRRAMGEQAVALARAVKYSSAGTVEFLVDSKKNFYFLEMNTRLQVEHPVTECITGLDLVQEMIRVAKGYPLRHKQADIRINGWAVECRVYAEDPYKSFGLPSIGRLSQYQEPLHLPGVRVDSGIQPGSDISIYYDPMISKLITYGSDRTEALKRMADALDNYVIRGVTHNIALLREVIINSRFVKGDISTKFLSDVYPDGFKGHMLTKSEKNQLLAIASSLFVAFQLRAQHFQENSRMPVIKPDIANWELSVKLHDKVHTVVASNNGSVFSVEVDGSKLNVTSTWNLASPLLSVSVDGTQRTVQCLSREAGGNMSIQFLGTVYKVNILTRLAAELNKFMLEKVTEDTSSVLRSPMPGVVVAVSVKPGDAVAEGQEICVIEAMKMQNSMTAGKTGTVKSVHCQAGDTVGEGDLLVELE | a PCCA:PCCB molar ratio of 1:1 (A:B ratio of 1:1) increased PCC activity the greatest in PCCA-deficient patient fibroblasts | a PCCA:PCCB molar ratio of 1:1 (A:B ratio of 1:1) increased PCC activity the greatest in PCCB-deficient patient fibroblasts | 5-25 fold higher

— patent publication US20220265856A1 (MODERNATX, published 2022)
